Assay results published in patent US20100303887A1, “DHA and PEDF, a Therapeutic Composition for Nerve and Retinal Pigment Epithelial Cells” (priority 2007, published 2010).

Assays:
NPD1 synthesis [1] = assay: NPD1 synthesis and release from polarized primary human RPE cell monolayers (lipidomic analysis); format: cell-based; settings: 72 hr
Method: Human RPE cells. Cultures of retinal pigment epithelial (RPE) cells were prepared. RPE cells were seeded onto Millicell-HA culture plate inserts (Millipore, Bradford, Mass.), placed in 24-well plates, and allowed to reach confluence. Consent for use of tissue for research was obtained in compliance with Federal and State law and institutional regulations. Cultures were maintained in Chee's essential replacement medium until the experiments were performed as described in J. Hu and D. Bok (2001) Mol Vis 7:14-19. The medium includes Eagle's minimal essential medium with calcium (MEM, Irvine Scientific, Irvine, Calif.), 1% heat-inactivated calf serum (JRH Bioscience, Lennexo, Kans.), amino acid supplements, and 1% bovine retinal extract. The Millicell-HA filter inserts allow separate manipulation of the culture media bathing the apical and basal surfaces of the RPE monolayer and measurement of the transepithelial resistance (TER), which provides a measure of cell differentiation and confluency. Cultures were used for experiments once they developed a TER of at least 400 Ω·cm^2, as measured by an Epithelial Volt-ohmmeter (EVOM, World Precision Instruments, New Haven, Conn.).
Exposure of RPE cells to growth factors. […] […] The lower chamber was filled with 500 μl media (bathing the basal cell monolayer surface) containing 0.1% HSA. Cells were incubated for 72 hours, then apical and basal media were removed and collected for analysis. After allowing the cells to rest for at least 72 hours on fresh media, the experiments were repeated.
Lipidomic analysis. Human RPE primary cell cultures or ARPE-19 cells were separated from culture media and washed with 1 ml PBS. After addition of 1 ml methanol, cells were scraped from plates or millicell membranes and collected for lipid extraction. Media was spun-down to separate cell debris, then 350 μl were collected in 1 ml of cold chloroform:methanol (1:1). Protein precipitates were then separated by centrifugation at 1500×g (5 min, 4° C.). Lipid extracts were collected, and kept under nitrogen at −80° C. until solid-phase purification; extracts were pre-equilibrated at pH 3.0 in 10% methanol/water, then loaded to 500 mg C18 columns (Varian, Inc., Palo Alto, Calif.), and eluted with 1% methanol/ethyl acetate. Eluates were concentrated on a N2 stream evaporator. Samples were loaded to a liquid chromatograph-tandem mass spectrometer (LC-TSQ Quantum, Thermo-Finnigan; Thermo Fisher Scientific, Waltham, Mass.) installed with a Biobasic-AX column (Thermo-Hypersil-Keystone, Thermo Fisher Scientific, Waltham, Mass.) (100 mm\2.1 mm, 5-μm particle sizes), and eluted in a linear gradient [100% solution A (40:60:0.01 methanol/water/acetic acid pH 4.5) to 100% solution B (99.99:0.01 methanol/acetic acid)], at a flow rate of 300 μl/min for 30 minutes. LC effluents were diverted to an electro-spray-ionization probe (ESI) on a TSQ Quantum (Thermo-Finnigan, Thermo Fisher Scientific, Waltham, Mass.) triple quadrupole mass spectrometer. NPD1 and resolving D1 were obtained by biogenic synthesis as described in N. G. Bazan, D. L. Birkle, and T. S. Reddy (1984) Biochem Biophys Res Commun. 125:741-74, and V. L. Marcheselli et al. (2003) J. Biol. Chem. 278:43807-43817. Erratum in: (2003) J Biol Chem 278:51974. Other lipid standards (Cayman Chem. Ann Arbor, Mich.) were used for tuning and optimization and to create calibration curves. The instrument was set on full-scan mode, to detect parent ions, and selected reaction mode (SRM) for quantitative analysis, to detect product ions, simultaneously. The selected parent/product ions (m/z) and collision energy (v) obtained by running on negative ion detection mode were: 359.2/153.1/20 for NPD1, 343.2/281.2/18 for resolving D1, 351.2/195.0/22 for 20HO-LTB4 (used as internal standard), 327.2/283.3/16 for DHA, 311.3/267.3/20 Arachidonic Acid-d8 (used as internal standard, IS).
Neurotrophins activated NPD1 synthesis in cultured primary human RPE cells. […]

Bcl-2 and Bfl-1 = assay: Anti-apoptotic protein expression in ARPE-19 cells under serum starvation/H2O2/TNFα oxidative stress (Western blot); format: cell-based, human; settings: DHA 10 to 50 nM, with or without PEDF
Method: (§1) Exposure of ARPE-19 cells to growth factors. Cells at 75-80% confluence (72 hr growth in DMEM/F12+10% FBS) were serum-starved for 2 hr before exposure to growth factors. The serum-starved cells were treated with TNF-α (Sigma-Aldrich Corporation, St. Louis, Mo.) (10 ng/ml) and H2O2 (600 μM) to induce oxidative stress and challenged with increasing concentrations (10, 30, 50 nM) and PEDF (Chemicon International, Temecula, Calif.) (50 ng/ml) simultaneously with oxidative stress for 4 hr before harvesting for protein analysis. Cell extracts were made and protein concentrations were adjusted by Bio-Rad protein reagent and used for Western-blot analysis. […] Cells were analyzed to detect Hoechst-positive apoptotic cells.
(§2) Analysis of Bcl-2 and caspase-3 cleavage. Bcl-2 protein and caspase-3 cleavage were analyzed by Western-blot analysis. […] The membranes were probed with primary antibodies against Bcl-2 (Santa Cruz Biotechnology, Inc., Santa Cruz, Calif.) and cleaved caspase-3 (Asp-175) (Cell Signaling) at room temperature and treated for 20 minutes with the secondary antibody, goat anti-rabbit IgG: horseradish peroxidase, and horseradish peroxidase-conjugated anti-biotin antibody, then proteins were detected by using an ECL kit (Amersham Biosciences, Buckinghamshire, United Kingdom). […]

Bid, Bax, and Bad = assay: Pro-apoptotic protein expression in ARPE-19 cells under serum starvation/H2O2/TNFα oxidative stress (Western blot); format: cell-based, human; settings: DHA 10 to 50 nM, with or without PEDF
Method: as §1, §2

NPD1 synthesis [2] = assay: NPD1 synthesis in cultured ARPE-19 cells (lipidomic analysis); format: cell-based, human; settings: serum starvation/H2O2/TNFα oxidative stress for the combination
Method: Exposure of ARPE-19 cells to growth factors. Cells at 75-80% confluence (72 hr growth in DMEM/F12+10% FBS) were serum-starved for 2 hr before exposure to growth factors. The serum-starved cells were treated with TNF-α (Sigma-Aldrich Corporation, St. Louis, Mo.) (10 ng/ml) and H2O2 (600 μM) to induce oxidative stress and challenged with increasing concentrations (10, 30, 50 nM) and PEDF (Chemicon International, Temecula, Calif.) (50 ng/ml) simultaneously with oxidative stress for 4 hr before harvesting for protein analysis. Cell extracts were made and protein concentrations were adjusted by Bio-Rad protein reagent and used for Western-blot analysis. To study neuroprotection by DHA and PEDF in the oxidative stress-induced ARPE-19 cells, 72 hr cells were serum-starved for 8 hr before the introduction of oxidative stress and challenged with DHA and PEDF for 15 hr. Cells were analyzed to detect Hoechst-positive apoptotic cells.
Lipidomic analysis. Human RPE primary cell cultures or ARPE-19 cells were separated from culture media and washed with 1 ml PBS. After addition of 1 ml methanol, cells were scraped from plates or millicell membranes and collected for lipid extraction. […] The instrument was set on full-scan mode, to detect parent ions, and selected reaction mode (SRM) for quantitative analysis, to detect product ions, simultaneously. […]

B1: PEDF: pigment epithelium-derived factor, a member of the serine protease inhibitor (serpin) family (protein, UniProt P36955 20-418, looked up)
Pigment epithelium-derived …: QNPASPPEEGSPDPDSTGALVEEEDPFFKVPVNKLAAAVSNFGYDLYRVRSSTSPTTNVLLSPLSVATALSALSLGAEQRTESIIHRALYYDLISSPDIHGTYKELLDTVTAPQKNLKSASRIVFEKKLRIKSSFVAPLEKSYGTRPRVLTGNPRLDLQEINNWVQAQMKGKLARSTKEIPDEISILLLGVAHFKGQWVTKFDSRKTSLEDFYLDEERTVRVPMMSDPKAVLRYGLDSDLSCKIAQLPLTGSMSIIFFLPLKVTQNLTLIEESLTSEFIHDIDRELKTVQAVLTVPKLKLSYEGEVTKSLQEMKLQSLFDSPDFSKITGKPIKLTQVEHRAGFEWNEDGAGTTPSPGLQPAHLTFPLDYHLNQPFIFVLRDTDTGALLFIGKILDPRGP
NPD1 synthesis [1]; growth factors 20 ng/ml added to apical medium
  NPD1 synthesis and release through the apical surface: by far the most potent stimulator of NPD1 synthesis
NPD1 synthesis [1]; increasing concentrations
  NPD1 release, neurotrophin added to the apical medium: concentration-dependent increases in NPD1 release only on the apical side
  NPD1 release, neurotrophin added to the basal medium: much less NPD1 release on the apical side
Bcl-2 and Bfl-1
  Bcl-2 and Bfl-1 anti-apoptotic protein expression: unable to alter the expression of pro- and anti-apoptotic proteins
Bid, Bax, and Bad
  Bid, Bax and Bad pro-apoptotic protein expression: unable to alter the expression of pro- and anti-apoptotic proteins
NPD1 synthesis [2]
  NPD1 synthesis in ARPE-19 cells: up-regulate NPD1 synthesis
